From patent US20210170043A1, “DC-SIGN ANTIBODY CONJUGATES COMPRISING STING AGONISTS” (NOVARTIS AG, priority 2018, published 2021)

Columns and labels:
Assay type in all cases: in vivo, mouse
[1] = system: transgenic mice expressing human DC-SIGN gene (Tg+); test: Plasma cytokine production in transgenic mice expressing human DC-SIGN (ELISA / MesoScaleDiscovery)
Description: FIGS. 5A-5E show exemplary data on DC-SIGN immunoconjugates inducing cytokine production in Tg+ mice. […] Plasma levels were analyzed by ELISA (IP-10 and IFNβ) or MesoScaleDiscovery Multiplex analysis (all other analytes). **** denotes p value of <0.0001 using an ANOVA with Tukey's test compared to Tg-2B2 hlgG1 DAPA C1 group.
Mice were bled 6 hours after dosing to collect plasma for analysis of circulating cytokine levels.

[2] = system: CD11c+ dendritic cells of Tg+ mice; test: Dendritic cell activation in DC-SIGN Tg+ mice (spleen, flow cytometry)
Description: (§1) Spleens were harvested 24 hours post dose and analyzed by flow cytometry to look at CD11c+ dendritic cells.

[3] = system: transgenic mice expressing human DC-SIGN gene (Tg+); test: Splenic dendritic cell activation in human DC-SIGN transgenic mice, flow cytometry; conditions: 24 hours post dose
Description: Blood was collected at 6 hours post dose to analyze plasma cytokine and chemokine levels and spleens were analyzed at 24 hours post dose to look at dendritic cell activation.
as §1
Tumors and/or spleens were extracted at the timepoints indicated from animals. Spleens were processed into a single cell suspension using glass slides and passed through a 100 micron mesh filter. Spleens were lysed in 1 mL of ACK lysis buffer (Life Technologies) for 5 minutes at room temperature. […]
1-2 million cells for each sample were then stained with a cocktail of antibodies to determine impact of the treatments on dendritic cells, myeloid cells and T cells. […] After staining, cells were evaluated on the BD LSRFortessa™ cell analyzer (BD Biosciences, San Jose, Calif.). […]

MC38 tumor cells = test: Flow cytometry of tumors and spleens of MC38 tumor-bearing mice (PDL1, T cell infiltration); conditions: Tg+ mice
Description: Spleens and tumors were analyzed 24 hours post dose by flow cytometry for PDL1 expression.
The effect of DC-SIGN immunoconjugate on tumor T cell infiltration was also evaluated. […] Mice After the mice were sacrificed 7 days after dosing, tumors were analyzed for T cell infiltration and activation by flow cytometry.
Tumors and/or spleens were extracted at the timepoints indicated from animals. Spleens were processed into a single cell suspension using glass slides and passed through a 100 micron mesh filter. Spleens were lysed in 1 mL of ACK lysis buffer (Life Technologies) for 5 minutes at room temperature. After lysis, cells were pelleted and resuspended in complete RMPI medium (RPMI Media 1640 with 10 percent fetal bovine serum (FBS), 0.05 mM 2-mercaptoethanol, 1 percent Penicillin-Streptomycin-Glutamine, 1 percent non-essential amino acids, 1 percent HEPES, 1 percent sodium pyruvate (all media reagents from Thermo Fisher). Tumors were extracted and put into digestion media in gentleMACS C tubes. Digestion media consists of Dulbecco's Modified Eagle Medium with 0.04 U/mL Dispase (StemCell Technologies), 0.1 mg/mL Collagenase P (Sigma) and 0.1 mg/mL DNase (Sigma). Tumors were incubated with in digestion media and then processed using the gentleMACS Dissociator (Miltenyi Biotec Inc, San Diego, Calif.) to obtain a single cell suspension. After processing, cells were filtered in […] filters (Miltenyi Biotec Inc).
1-2 million cells for each sample were then stained with a cocktail of antibodies to determine impact of the treatments on dendritic cells, myeloid cells and T cells. For FACS analysis, cells were stained with a fixable, amine reactive dye to label dead cells (Zombie UV™ fixable viability kit, Biolegend) in PBS. For antibody staining, indicated antibodies (see table below) were diluted in PBS with 0.5% Bovine serum albumin (BSA, from Sigma). Samples were incubated at 4° C. for 30 minutes and then washed 2 times with PBS with 0.5% BSA. Cells were fixed with stabilizing fixative (BD). For intracellular analysis of FoxP3 to evaluate T regulatory cells, cells were fixed and permeabilized with the FoxP3 transcription factor kit according to manufacturer's recommendations (Thermo Fisher). Cells were then stained with FoxP3 clone FJK-16s (Thermo Fisher). After staining, cells were evaluated on the BD LSRFortessa™ cell analyzer (BD Biosciences, San Jose, Calif.).
T cells were identified as CD3+ MHCII− cells. CD8+ T cells and CD4+ T cells were further defined as CD8 and CD4 positive, respectively. Tregs were identified from CD4+ T cells as being FoxP3+.
Dendritic cells were identified as MHCII high CD11c high cells and further gated on expression of CD8 and CD11 b to identify CD8+DC subsets and CD11b+ DCs where noted. Monocytic myeloid derived suppressor cells were identified as CD45+ cells in tumors that express CD11b, MHCII, F4/80, Ly6C and are intermediate for Ly6G.

[4] = MC38, 1 mg/kg, 24 hours post dose

B1: 2B2 (DAPA) C1 (conjugate)
heavy: QVQLVQSGAEVKKPGASVKVSCKASGYTFTNYGINWVRQAPGQRLEWMGYIYIGNDYTEYNERFKGRVTITSDTSASTAYMELSSLRSEDTAVYYCARLYYGSSLYSYAMDYWGQGTTVTVSSASTKGPSVFPLAPSSKSTSGGTAALGCLVKDYFPCPVTVSWNSGALTSGVHTFPAVLQSSGLYSLSSVVTVPSSSLGTQTYICNVNHKPSNTKVDKRVEPKSCDKTHTCPPCPAPELLGGPSVFLFPPKPKDTLMISRTPEVTCVVVAVSHEDPEVKFNWYVDGVEVHNAKTKPREEQYNSTYRVVSVLTVLHQDWLNGKEYKCKVSNKALAAPIEKTISKAKGQPREPQVYTLPPSREEMTKNQVSLTCLVKGFYPCDIAVEWESNGQPENNYKTTPPVLDSDGSFFLYSKLTVDKSRWQQGNVFSCSVMHEALHNHYTQKSLSLSPGK
light: DIVMTQSPLSLPVTPGEPASISCRSSKSLLHSSGNTYLYWFLQKPGQSPQLLISRMSNLASGVPDRFSGSGSGTDFTLKISRVEAEDVGVYYCMQHLEYPYTFGGGTKVEIKRTVAAPSVFIFPPSDEQLKSGTASVVCLLNNFYPREAKVQWKVDNALQSGNSQESVTEQDSKDSTYSLSSTLTLSKADYEKHKVYACEVTHQGLSSPVTKSFNRGEC
circulating plasma IL-12p70 [1]: increased | circulating plasma IP-10 [1]: increased | circulating plasma TNFα [1]: increased | CD80 upregulation on dendritic cells (DC activation) [2]: significantly upregulated | CD86 upregulation on dendritic cells (DC activation) [2]: significantly upregulated | CD86 upregulation on splenic dendritic cells ([3]; 1 mg/kg i.v. (Fab2 1.33 mg/kg, Fab 1.3 mg/kg)): significantly upregulated | CD80 upregulation on splenic dendritic cells ([3]; 1 mg/kg i.v.): significantly upregulated | surface PDL1 on splenic CD11c high dendritic cells (MC38 tumor cells; [4]): significant upregulation of surface PDL1 | surface PDL1 on tumor resident dendritic cells and mMDSCs (MC38 tumor cells; [4]): significant upregulation of surface PDL1 | tumor CD3+ T cells (MC38 tumor cells; MC38, 1 mpk, 24 and 48 hours post dosing): increased CD3+ T cells | T cell activation as measured by CD69 upregulation on tumor CD4 and CD8 T cells (MC38 tumor cells; MC38, 1 mpk, 24 hours post dose): Enhanced T cell activation | tumor CD8+ T cells (MC38 tumor cells; MC38, 1 mpk, day 7 post dose): significant increase in CD8+ T cells | tumor FoxP3+ T regulatory cells (MC38 tumor cells; MC38, 1 mpk, day 7 post dose): significant decrease in FoxP3+T regulatory cells | tumor infiltration of CD8 T cells, combination with anti-PDL1 (MC38 tumor cells; MC38, conjugate plus anti-PDL1 clone 10F.9G2, 7 days after dosing): enhanced infiltration of CD8 T cells
